In patent EP2226633A1 (Charité - Universitätsmedizin Berlin, dated 2010):
Each block holds one binder with its values, some of them ahead of it.

Assays:
murine LIF, unlabelled = murine LIF, unlabelled (mouse, UniProt P09056 24-203); test: displacement of 125I-mLIF from Ba/F3 cells transfected with LIFRα and gp130
[1] = biological target: iodinated murine LIF (125I-mLIF) (mouse, UniProt P09056 24-203); test: radioligand binding on transfected Ba/F3 cells
[2] = biological target: T1, V5-His-tagged murine soluble LIFR, secreted by HEK 293 cells (mouse, UniProt P42703-2 44-719, limits assumed); test: GST pull-down, HEK supernatant with msLIFR as prey, anti-V5 Western blot
T1 construct: Used as culture supernatant; also called msLIFR; murine soluble LIFRα; not shown: V5-His tag
T1 sequence (looked up): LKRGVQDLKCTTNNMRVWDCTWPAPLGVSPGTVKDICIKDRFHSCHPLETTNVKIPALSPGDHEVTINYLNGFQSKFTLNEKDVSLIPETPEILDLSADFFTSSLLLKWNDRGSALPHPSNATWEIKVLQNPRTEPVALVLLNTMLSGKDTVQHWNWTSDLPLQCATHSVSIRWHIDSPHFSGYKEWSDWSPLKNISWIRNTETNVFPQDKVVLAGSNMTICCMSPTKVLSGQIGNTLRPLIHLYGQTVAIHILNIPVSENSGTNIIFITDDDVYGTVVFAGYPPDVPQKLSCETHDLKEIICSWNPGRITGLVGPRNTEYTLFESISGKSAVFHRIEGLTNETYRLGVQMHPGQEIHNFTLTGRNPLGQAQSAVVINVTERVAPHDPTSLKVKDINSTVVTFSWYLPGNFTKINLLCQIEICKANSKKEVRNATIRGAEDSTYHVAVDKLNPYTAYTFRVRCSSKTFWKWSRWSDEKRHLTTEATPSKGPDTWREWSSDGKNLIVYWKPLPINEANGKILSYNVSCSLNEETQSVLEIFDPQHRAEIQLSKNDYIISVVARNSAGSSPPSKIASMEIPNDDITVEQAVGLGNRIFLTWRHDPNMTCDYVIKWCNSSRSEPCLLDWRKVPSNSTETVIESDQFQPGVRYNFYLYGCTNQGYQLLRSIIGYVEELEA

[3] = biological target: T2, human LIFRα from HEK 293 cell extracts (human, UniProt P42702 45-1097); test: GST pull-down, HEK cell extracts as prey, anti-LIFR Western blot
T2 construct: Endogenous protein from crude cell extract; also called hLIFRα
T2 sequence (looked up): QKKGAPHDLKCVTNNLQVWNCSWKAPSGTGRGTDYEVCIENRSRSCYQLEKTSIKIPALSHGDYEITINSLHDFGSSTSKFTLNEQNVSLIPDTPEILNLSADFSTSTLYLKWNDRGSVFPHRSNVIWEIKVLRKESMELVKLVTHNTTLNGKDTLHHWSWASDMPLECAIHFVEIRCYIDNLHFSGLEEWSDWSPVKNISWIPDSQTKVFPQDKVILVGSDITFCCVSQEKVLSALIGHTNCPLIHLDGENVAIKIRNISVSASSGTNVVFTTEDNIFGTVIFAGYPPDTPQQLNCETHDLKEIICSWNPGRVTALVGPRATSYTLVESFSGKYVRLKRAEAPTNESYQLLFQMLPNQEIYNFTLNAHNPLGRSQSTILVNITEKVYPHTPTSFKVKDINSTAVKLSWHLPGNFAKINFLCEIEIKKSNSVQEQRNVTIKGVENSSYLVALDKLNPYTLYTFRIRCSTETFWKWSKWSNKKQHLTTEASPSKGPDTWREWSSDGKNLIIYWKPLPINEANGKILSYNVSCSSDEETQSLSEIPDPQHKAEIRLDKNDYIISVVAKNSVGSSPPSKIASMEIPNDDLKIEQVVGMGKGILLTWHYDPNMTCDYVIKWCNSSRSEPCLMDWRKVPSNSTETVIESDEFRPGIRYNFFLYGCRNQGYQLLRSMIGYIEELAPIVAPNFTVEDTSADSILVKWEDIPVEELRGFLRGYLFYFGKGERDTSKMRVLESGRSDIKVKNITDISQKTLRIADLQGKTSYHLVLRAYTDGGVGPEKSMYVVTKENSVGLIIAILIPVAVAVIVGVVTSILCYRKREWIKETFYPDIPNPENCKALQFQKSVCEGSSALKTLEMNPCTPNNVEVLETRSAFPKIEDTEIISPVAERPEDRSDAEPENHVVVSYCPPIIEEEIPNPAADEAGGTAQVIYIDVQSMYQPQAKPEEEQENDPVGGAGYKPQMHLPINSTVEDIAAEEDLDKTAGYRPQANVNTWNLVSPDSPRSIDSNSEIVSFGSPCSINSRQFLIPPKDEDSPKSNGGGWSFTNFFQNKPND

binding result (murine LIF, unlabelled): binds | binding result [1]: binds
B1: heterodimeric LIF receptor (murine gp130 and LIFRα) on transiently transfected Ba/F3 cells (receptor)
chain 1: QLLEPCGYIYPEFPVVQRGSNFTAICVLKEACLQHYYVNASYIVWKTNHAAVPREQVTVINRTTSSVTFTDVVLPSVQLTCNILSFGQIEQNVYGVTMLSGFPPDKPTNLTCIVNEGKNMLCQWDPGRETYLETNYTLKSEWATEKFPDCQSKHGTSCMVSYMPTYYVNIEVWVEAENALGKVSSESINFDPVDKVKPTPPYNLSVTNSEELSSILKLSWVSSGLGGLLDLKSDIQYRTKDASTWIQVPLEDTMSPRTSFTVQDLKPFTEYVFRIRSIKDSGKGYWSDWSEEASGTTYEDRPSRPPSFWYKTNPSHGQEYRSVRLIWKALPLSEANGKILDYEVILTQSKSVSQTYTVTGTELTVNLTNDRYVASLAARNKVGKSAAAVLTIPSPHVTAAYSVVNLKAFPKDNLLWVEWTPPPKPVSKYILEWCVLSENAPCVEDWQQEDATVNRTHLRGRLLESKCYQITVTPVFATGPGGSESLKAYLKQAAPARGPTVRTKKVGKNEAVLAWDQIPVDDQNGFIRNYSISYRTSVGKEMVVHVDSSHTEYTLSSLSSDTLYMVRMAAYTDEGGKDGPEFTFTTPKFAQGEIEAIVVPVCLAFLLTTLLGVLFCFNKRDLIKKHIWPNVPDPSKSHIAQWSPHTPPRHNFNSKDQMYSDGNFTDVSVVEIEANNKKPCPDDLKSVDLFKKEKVSTEGHSSGIGGSSCMSSSRPSISSNEENESAQSTASTVQYSTVVHSGYRHQVPSVQVFSRSESTQPLLDSEERPEDLQLVDSVDGGDEILPRQPYFKQNCSQPEACPEISHFERSNQVLSGNEEDFVRLKQQQVSDHISQPYGSEQRRLFQEGSTADALGTGADGQMERFESVGMETTIDEEIPKSYLPQTVRQGGYMPQ
chain 2: LKRGVQDLKCTTNNMRVWDCTWPAPLGVSPGTVKDICIKDRFHSCHPLETTNVKIPALSPGDHEVTINYLNGFQSKFTLNEKDVSLIPETPEILDLSADFFTSSLLLKWNDRGSALPHPSNATWEIKVLQNPRTEPVALVLLNTMLSGKDTVQHWNWTSDLPLQCATHSVSIRWHIDSPHFSGYKEWSDWSPLKNISWIRNTETNVFPQDKVVLAGSNMTICCMSPTKVLSGQIGNTLRPLIHLYGQTVAIHILNIPVSENSGTNIIFITDDDVYGTVVFAGYPPDVPQKLSCETHDLKEIICSWNPGRITGLVGPRNTEYTLFESISGKSAVFHRIEGLTNETYRLGVQMHPGQEIHNFTLTGRNPLGQAQSAVVINVTERVAPHDPTSLKVKDINSTVVTFSWYLPGNFTKINLLCQIEICKANSKKEVRNATIRGAEDSTYHVAVDKLNPYTAYTFRVRCSSKTFWKWSRWSDEKRHLTTEATPSKGPDTWREWSSDGKNLIVYWKPLPINEANGKILSYNVSCSLNEETQSVLEIFDPQHRAEIQLSKNDYIISVVARNSAGSSPPSKIASMEIPNDDITVEQAVGLGNRIFLTWRHDPNMTCDYVIKWCNSSRSEPCLLDWRKVPSNSTETVIESDQFQPGVRYNFYLYGCTNQGYQLLRSIIGYVEELAPIVAPNFTVEDTSADSILVKWDDIPVEELRGFLRGYLFYFQKGERDTPKTRSLEPHHSDIKLKNITDISQKTLRIADLQGKTSYHLVLRAYTHGGLGPEKSMFVVTKENSVGLIIAILIPVAVAVIVGVVTSILCYRKREWIKETFYPDIPNPENCKALQFQKSVCEGSNALKTLEMNPCTPNNVEVLESRSIVPKIEDTEIISPVAERPGERSEVDPENHVVVSYCPPIIEEEITNPAADEVGGASQVVYIDVQSMYQPQAKAEEEQDVDPVVVAGYKPQMRLPISPAVEDTAAEDEEGKTAGYRPQANVNTWNLVSPDSPRSTDSNNEVVSFGSPCSINSRQFLIPPKDEDSPKSNGGGWSFTNFFQNKPND
notes: whole, on cells; Also used here for the endogenous LIFR of murine M1 cells in the proliferation assay; also called classical LIFR; LIFRα/gp130

binding result [2]: no binding | binding result [3]: no binding
B2: GST fusion protein of mature murine EPO, expressed in E. coli (ligand, mouse, UniProt P07321 27-192, looked up)
chain: APPRLICDSRVLERYILEAKEAENVTMGCAEGPRLSENITVPDTKVNFYAWKRMEVEEQAIEVWQGLSLLSEAILQAQALLANSSQPPETLQLHIDKAISGLRSLTSLLRVLGAQKELMSPPDTTPPAPLRTLTVDTFCKLFRVYANFLRGKLKLYTGEVCRRGDR
notes: mature; also called GST-matmEPO; matmE; not shown: N-terminal GST tag from pGEX-6P-1
